Assay results as given in paper PMC3334620.

Columns and labels:
[1] = molecular target: T1, Msn1 (Saccharomyces cerevisiae) (UniProt P22148); details: 200 nM
T1 sequence: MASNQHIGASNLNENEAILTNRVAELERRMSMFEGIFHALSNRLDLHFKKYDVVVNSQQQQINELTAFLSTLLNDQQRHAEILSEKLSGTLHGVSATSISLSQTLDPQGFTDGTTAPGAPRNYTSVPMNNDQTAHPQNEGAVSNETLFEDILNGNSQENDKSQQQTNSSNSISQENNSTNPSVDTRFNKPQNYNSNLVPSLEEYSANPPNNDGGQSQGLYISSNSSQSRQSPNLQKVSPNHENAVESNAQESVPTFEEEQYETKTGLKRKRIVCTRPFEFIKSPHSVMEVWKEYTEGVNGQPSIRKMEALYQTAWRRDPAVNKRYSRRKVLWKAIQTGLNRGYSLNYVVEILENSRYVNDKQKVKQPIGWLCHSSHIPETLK

[2] = molecular target: T2, Mot3 (Saccharomyces cerevisiae) (UniProt P54785); details: 200 nM
T2 sequence: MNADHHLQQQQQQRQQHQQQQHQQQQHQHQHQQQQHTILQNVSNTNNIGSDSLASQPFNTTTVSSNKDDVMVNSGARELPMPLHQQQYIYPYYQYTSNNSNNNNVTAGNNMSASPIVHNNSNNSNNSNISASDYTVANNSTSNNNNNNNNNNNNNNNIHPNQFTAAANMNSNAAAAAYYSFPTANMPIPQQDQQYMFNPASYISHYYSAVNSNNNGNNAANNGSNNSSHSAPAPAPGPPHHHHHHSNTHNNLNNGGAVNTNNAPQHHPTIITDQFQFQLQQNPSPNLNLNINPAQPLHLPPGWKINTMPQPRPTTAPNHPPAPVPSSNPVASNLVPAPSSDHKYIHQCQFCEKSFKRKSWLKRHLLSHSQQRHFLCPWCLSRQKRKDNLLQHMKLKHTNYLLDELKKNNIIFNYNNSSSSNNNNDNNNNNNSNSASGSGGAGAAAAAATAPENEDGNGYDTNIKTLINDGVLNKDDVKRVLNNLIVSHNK

[3] = molecular target: T3, Hmlalpha2 (Saccharomyces cerevisiae) (UniProt P0CY09); details: 200 nM
T3 sequence: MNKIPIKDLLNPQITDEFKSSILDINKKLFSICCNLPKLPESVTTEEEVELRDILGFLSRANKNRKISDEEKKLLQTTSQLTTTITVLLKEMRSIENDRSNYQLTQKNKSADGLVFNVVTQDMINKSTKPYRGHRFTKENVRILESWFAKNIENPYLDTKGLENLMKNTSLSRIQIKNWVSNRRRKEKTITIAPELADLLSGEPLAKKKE

[4] = molecular target: T4, Gcr1 (Saccharomyces cerevisiae) (UniProt P07261); details: 100 nM
T4 sequence: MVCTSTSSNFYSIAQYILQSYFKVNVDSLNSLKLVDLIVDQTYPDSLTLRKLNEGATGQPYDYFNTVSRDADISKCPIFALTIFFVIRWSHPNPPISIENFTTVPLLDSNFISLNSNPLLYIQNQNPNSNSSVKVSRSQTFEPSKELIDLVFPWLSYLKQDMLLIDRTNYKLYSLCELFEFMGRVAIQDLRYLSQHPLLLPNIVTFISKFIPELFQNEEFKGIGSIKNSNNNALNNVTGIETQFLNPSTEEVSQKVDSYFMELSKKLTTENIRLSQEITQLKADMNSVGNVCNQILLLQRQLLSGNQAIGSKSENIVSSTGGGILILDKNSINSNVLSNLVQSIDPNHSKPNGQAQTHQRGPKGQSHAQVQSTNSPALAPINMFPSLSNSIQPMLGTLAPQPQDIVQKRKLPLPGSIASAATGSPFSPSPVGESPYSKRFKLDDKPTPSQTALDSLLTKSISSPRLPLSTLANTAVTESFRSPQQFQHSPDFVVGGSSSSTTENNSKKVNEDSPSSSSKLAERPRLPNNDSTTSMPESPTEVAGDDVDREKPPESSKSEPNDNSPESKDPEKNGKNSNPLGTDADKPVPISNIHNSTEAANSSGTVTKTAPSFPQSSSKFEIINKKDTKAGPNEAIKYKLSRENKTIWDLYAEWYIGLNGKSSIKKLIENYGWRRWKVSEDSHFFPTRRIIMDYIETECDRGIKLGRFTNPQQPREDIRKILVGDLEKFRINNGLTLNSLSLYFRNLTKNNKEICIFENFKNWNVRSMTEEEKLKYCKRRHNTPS

[5] = molecular target: T5, Ecm22 (Saccharomyces cerevisiae) (UniProt Q05958); details: 200 nM
T5 sequence: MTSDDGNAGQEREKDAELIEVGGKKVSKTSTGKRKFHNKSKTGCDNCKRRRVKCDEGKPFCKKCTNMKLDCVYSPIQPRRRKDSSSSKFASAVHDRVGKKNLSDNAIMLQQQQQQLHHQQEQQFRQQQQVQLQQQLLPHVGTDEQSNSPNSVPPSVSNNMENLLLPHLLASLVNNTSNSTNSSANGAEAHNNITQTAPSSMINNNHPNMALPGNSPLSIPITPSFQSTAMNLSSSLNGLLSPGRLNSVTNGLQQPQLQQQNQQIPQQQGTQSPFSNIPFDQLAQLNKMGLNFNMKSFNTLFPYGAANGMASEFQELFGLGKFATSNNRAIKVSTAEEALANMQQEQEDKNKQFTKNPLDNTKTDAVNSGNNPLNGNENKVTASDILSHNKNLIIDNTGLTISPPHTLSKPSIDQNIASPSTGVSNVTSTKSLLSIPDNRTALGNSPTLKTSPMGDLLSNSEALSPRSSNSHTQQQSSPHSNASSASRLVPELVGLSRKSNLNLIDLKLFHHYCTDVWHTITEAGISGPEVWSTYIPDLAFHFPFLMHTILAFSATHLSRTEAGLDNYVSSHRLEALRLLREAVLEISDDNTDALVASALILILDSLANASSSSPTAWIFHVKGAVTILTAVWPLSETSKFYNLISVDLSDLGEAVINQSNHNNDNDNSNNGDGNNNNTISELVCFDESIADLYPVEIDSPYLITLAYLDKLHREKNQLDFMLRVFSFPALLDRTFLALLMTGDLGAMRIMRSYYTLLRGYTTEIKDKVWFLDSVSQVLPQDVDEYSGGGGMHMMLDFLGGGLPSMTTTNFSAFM

AAAATGTC (double strand) [8-mer AAAATGTC]
binding signal (PBM E-score (-0.5 to 0.5)) [1]: 0.491

AAAGGCAC (double strand) [8-mer AAAGGCAC]
binding signal (PBM E-score (-0.5 to 0.5)) [2]: 0.495

AAATGTCC (double strand) [8-mer AAATGTCC]
binding signal (PBM E-score (-0.5 to 0.5)) [1]: 0.498

AAGGCACC (double strand) [8-mer AAGGCACC]
binding signal (PBM E-score (-0.5 to 0.5)) [2]: 0.493

AAGGCACG (double strand) [8-mer AAGGCACG]
binding signal (PBM E-score (-0.5 to 0.5)) [2]: 0.496

AATGTCCA (double strand) [8-mer AATGTCCA]
binding signal (PBM E-score (-0.5 to 0.5)) [1]: 0.493

AATGTCCC (double strand) [8-mer AATGTCCC]
binding signal (PBM E-score (-0.5 to 0.5)) [1]: 0.496

AATGTCCT (double strand) [8-mer AATGTCCT]
binding signal (PBM E-score (-0.5 to 0.5)) [1]: 0.496

AATTACAT (double strand) [8-mer AATTACAT]
binding signal (PBM E-score (-0.5 to 0.5)) [3]: 0.489

ACAGGCAC (double strand) [8-mer ACAGGCAC]
binding signal (PBM E-score (-0.5 to 0.5)) [2]: 0.495

ACATGTAA (double strand) [8-mer ACATGTAA]
binding signal (PBM E-score (-0.5 to 0.5)) [3]: 0.488

ACGTGCCT (double strand) [8-mer ACGTGCCT]
binding signal (PBM E-score (-0.5 to 0.5)) [2]: 0.494

AGCATCCT (double strand) [8-mer AGCATCCT]
binding signal (PBM E-score (-0.5 to 0.5)) [4]: 0.465

AGCTTCCT (double strand) [8-mer AGCTTCCT]
binding signal (PBM E-score (-0.5 to 0.5)) [4]: 0.485

AGGAACGA (double strand) [8-mer AGGAACGA]
binding signal (PBM E-score (-0.5 to 0.5)) [5]: 0.495

AGGAAGCC (double strand) [8-mer AGGAAGCC]
binding signal (PBM E-score (-0.5 to 0.5)) [4]: 0.487

AGGACAAA (double strand) [8-mer AGGACAAA]
binding signal (PBM E-score (-0.5 to 0.5)) [1]: 0.498

AGGACATA (double strand) [8-mer AGGACATA]
binding signal (PBM E-score (-0.5 to 0.5)) [1]: 0.494

AGGATGCC (double strand) [8-mer AGGATGCC]
binding signal (PBM E-score (-0.5 to 0.5)) [4]: 0.47

AGGCACGC (double strand) [8-mer AGGCACGC]
binding signal (PBM E-score (-0.5 to 0.5)) [2]: 0.496

AGGTACGA (double strand) [8-mer AGGTACGA]
binding signal (PBM E-score (-0.5 to 0.5)) [5]: 0.495

ATATGTCC (double strand) [8-mer ATATGTCC]
binding signal (PBM E-score (-0.5 to 0.5)) [1]: 0.496

ATTACACA (double strand) [8-mer ATTACACA]
binding signal (PBM E-score (-0.5 to 0.5)) [3]: 0.492

ATTACACG (double strand) [8-mer ATTACACG]
binding signal (PBM E-score (-0.5 to 0.5)) [3]: 0.495

ATTACATA (double strand) [8-mer ATTACATA]
binding signal (PBM E-score (-0.5 to 0.5)) [3]: 0.488

ATTACATG (double strand) [8-mer ATTACATG]
binding signal (PBM E-score (-0.5 to 0.5)) [3]: 0.495

CAGCGTCC (double strand) [8-mer CAGCGTCC]
binding signal (PBM E-score (-0.5 to 0.5)) [4]: 0.465

CAGGCACA (double strand) [8-mer CAGGCACA]
binding signal (PBM E-score (-0.5 to 0.5)) [2]: 0.493

CAGGCACC (double strand) [8-mer CAGGCACC]
binding signal (PBM E-score (-0.5 to 0.5)) [2]: 0.496

CAGGCACG (double strand) [8-mer CAGGCACG]
binding signal (PBM E-score (-0.5 to 0.5)) [2]: 0.496

CATGTAAA (double strand) [8-mer CATGTAAA]
binding signal (PBM E-score (-0.5 to 0.5)) [3]: 0.491

CATGTTAA (double strand) [8-mer CATGTTAA]
binding signal (PBM E-score (-0.5 to 0.5)) [3]: 0.489

CCATGTAA (double strand) [8-mer CCATGTAA]
binding signal (PBM E-score (-0.5 to 0.5)) [3]: 0.486

CCGTGTAA (double strand) [8-mer CCGTGTAA]
binding signal (PBM E-score (-0.5 to 0.5)) [3]: 0.486

CGGAACGA (double strand) [8-mer CGGAACGA]
binding signal (PBM E-score (-0.5 to 0.5)) [5]: 0.493

CGGCTTCC (double strand) [8-mer CGGCTTCC]
binding signal (PBM E-score (-0.5 to 0.5)) [4]: 0.472

CGTGCCTA (double strand) [8-mer CGTGCCTA]
binding signal (PBM E-score (-0.5 to 0.5)) [2]: 0.495

CGTGTAAA (double strand) [8-mer CGTGTAAA]
binding signal (PBM E-score (-0.5 to 0.5)) [3]: 0.493

CTCGTACC (double strand) [8-mer CTCGTACC]
binding signal (PBM E-score (-0.5 to 0.5)) [5]: 0.496

CTCGTTCC (double strand) [8-mer CTCGTTCC]
binding signal (PBM E-score (-0.5 to 0.5)) [5]: 0.496

CTTTACAC (double strand) [8-mer CTTTACAC]
binding signal (PBM E-score (-0.5 to 0.5)) [3]: 0.489

GAAGGCAC (double strand) [8-mer GAAGGCAC]
binding signal (PBM E-score (-0.5 to 0.5)) [2]: 0.495

GAGCTTCC (double strand) [8-mer GAGCTTCC]
binding signal (PBM E-score (-0.5 to 0.5)) [4]: 0.469

GCAGGCAA (double strand) [8-mer GCAGGCAA]
binding signal (PBM E-score (-0.5 to 0.5)) [2]: 0.493

GCAGGCAC (double strand) [8-mer GCAGGCAC]
binding signal (PBM E-score (-0.5 to 0.5)) [2]: 0.497

GCTTCCTA (double strand) [8-mer GCTTCCTA]
binding signal (PBM E-score (-0.5 to 0.5)) [4]: 0.468

GGAAGCCA (double strand) [8-mer GGAAGCCA]
binding signal (PBM E-score (-0.5 to 0.5)) [4]: 0.48

GGAAGCCC (double strand) [8-mer GGAAGCCC]
binding signal (PBM E-score (-0.5 to 0.5)) [4]: 0.473

GGAATCCA (double strand) [8-mer GGAATCCA]
binding signal (PBM E-score (-0.5 to 0.5)) [4]: 0.473

GGAATCCC (double strand) [8-mer GGAATCCC]
binding signal (PBM E-score (-0.5 to 0.5)) [4]: 0.464

GGATTCCA (double strand) [8-mer GGATTCCA]
binding signal (PBM E-score (-0.5 to 0.5)) [4]: 0.476

GGCATCCA (double strand) [8-mer GGCATCCA]
binding signal (PBM E-score (-0.5 to 0.5)) [4]: 0.469

GGCTTCCA (double strand) [8-mer GGCTTCCA]
binding signal (PBM E-score (-0.5 to 0.5)) [4]: 0.483

GGTACGAC (double strand) [8-mer GGTACGAC]
binding signal (PBM E-score (-0.5 to 0.5)) [5]: 0.495

GTAGGCAC (double strand) [8-mer GTAGGCAC]
binding signal (PBM E-score (-0.5 to 0.5)) [2]: 0.495

GTGCCTGA (double strand) [8-mer GTGCCTGA]
binding signal (PBM E-score (-0.5 to 0.5)) [2]: 0.493

TATGTAAA (double strand) [8-mer TATGTAAA]
binding signal (PBM E-score (-0.5 to 0.5)) [3]: 0.49

TCGTGTAA (double strand) [8-mer TCGTGTAA]
binding signal (PBM E-score (-0.5 to 0.5)) [3]: 0.49

TGTGTAAA (double strand) [8-mer TGTGTAAA]
binding signal (PBM E-score (-0.5 to 0.5)) [3]: 0.489
